Residue numbers refer to the chain shown, from its start.
Experiments:
Test in all cases: ITC; ITC: 20 mM Tris pH 7.25, 100 mM KCl, 5 mM MgCl2, 1 mM DTT, 298 K; protein titrated into RNA
Conditions in all cases: protein: recombinant; tags: N-terminal His6 (TEV-cleavable); stem-loop with internal bulge
HsLARP6(70-300) R245A = target: T1, HsLARP6(70-300) R245A (Homo sapiens, UniProt Q9BRS8 70-300, R245A)
T1 sequence: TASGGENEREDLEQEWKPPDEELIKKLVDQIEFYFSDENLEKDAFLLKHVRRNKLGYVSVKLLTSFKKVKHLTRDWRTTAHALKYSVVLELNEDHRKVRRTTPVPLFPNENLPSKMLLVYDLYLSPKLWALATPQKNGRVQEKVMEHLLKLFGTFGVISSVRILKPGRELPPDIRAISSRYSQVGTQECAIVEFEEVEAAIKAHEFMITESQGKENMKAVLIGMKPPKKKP

HsLARP6(70-300) Y189A = target: T2, HsLARP6(70-300) Y189A (Homo sapiens, UniProt Q9BRS8 70-300, Y189A)
T2 sequence: T1 sequence with Y120A, A176R

HsLARP6(74-313) = target: T3, HsLARP6(74-313) (Homo sapiens, UniProt Q9BRS8 74-313)
T3 sequence: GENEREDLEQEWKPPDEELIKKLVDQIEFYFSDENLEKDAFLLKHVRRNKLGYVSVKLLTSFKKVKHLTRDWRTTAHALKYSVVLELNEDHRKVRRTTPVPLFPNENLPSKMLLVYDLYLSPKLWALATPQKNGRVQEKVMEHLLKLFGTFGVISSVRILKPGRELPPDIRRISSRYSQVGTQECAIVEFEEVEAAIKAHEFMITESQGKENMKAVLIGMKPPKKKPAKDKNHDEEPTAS

HsLARP6(70-300) W198A = target: T4, HsLARP6(70-300) W198A (Homo sapiens, UniProt Q9BRS8 70-300, W198A)
T4 sequence: T1 sequence with W129A, A176R

HsLARP6(70-300) R237A = target: T5, HsLARP6(70-300) R237A (Homo sapiens, UniProt Q9BRS8 70-300, R237A)
T5 sequence: T1 sequence with R168A, A176R

HsLARP6(70-300) D112A = target: T6, HsLARP6(70-300) D112A (Homo sapiens, UniProt Q9BRS8 70-300, D112A)
T6 sequence: T1 sequence with D43A, A176R

[1] = target: T7, HsLARP6(70-300) R244E/R245E/R249E (Homo sapiens, UniProt Q9BRS8 70-300, R244E;R245E;R249E)
T7 sequence: T1 sequence with R175E, A176E, R180E

HsLARP6(70-300) K196A = target: T8, HsLARP6(70-300) K196A (Homo sapiens, UniProt Q9BRS8 70-300, K196A)
T8 sequence: T1 sequence with K127A, A176R

In the case of CCACAAAGAGUCUACAUGUCUAGGGUCUAGACAUGUUCAGCUUUGUGG (structured_RNA) [48 nt RNA (collagen alpha1(I) 5' UTR SL)], the Kd (HsLARP6(70-300) R245A) is reported as 36 nM, the Kd (HsLARP6(70-300) Y189A) is reported as 59 nM and the Kd (HsLARP6(74-313)) is reported as 26 nM. It also gave a Kd (HsLARP6(70-300) W198A) of 71 nM, a Kd (HsLARP6(70-300) R237A) of 15 nM and a Kd (HsLARP6(70-300) D112A) of 172 nM. For the same binder, the Kd [1] was 27 nM and the Kd (HsLARP6(70-300) K196A) was 48 nM.

Reference: PMC4288179, “Synergic interplay of the La motif, RRM1 and the interdomain linker of LARP6 in the recognition of collagen mRNA expands the RNA binding repertoire of the La module”
